Reference: article PMC5658772 (Emerging Microbes & Infections, 2017)

B1: m301 IgG1 (antibody, V domains shown)
VH: EVQLVQSGGGLVKPGGSLRLSCAASGFTFSSYGMHWVRQAPGKGLEWVAVISYDGSNKYYADSVKGRFTISRDNSKNTLYLQMNSLRAEDTAVYYCAKEVGRSYFDYWGQGTLVTVSS
VL: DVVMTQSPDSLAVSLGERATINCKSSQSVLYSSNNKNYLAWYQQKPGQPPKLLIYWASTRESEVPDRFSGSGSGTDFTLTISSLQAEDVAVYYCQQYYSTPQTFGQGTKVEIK
notes: also called m301 mAb; IgG m301; source: Expi293, transient, purified (protein G)
B2: m302 IgG1 (antibody, V domains shown)
VH: EVQLVQSGGGLVKPGRSLRLSCAASGFTFSSYAMHWVRQAPGKGLEWVAVISYDGSNKYYADSVKGRFTISRDNSKNTLYLQMNSLRAEDTAVYYCAREIGDYYYYGMDVWGQGTLVTVSS
VL: EIVMTQSPATLSLSPGERATLSCRASQSVSSYLAWYQQKPGQAPRLLIYDASNRATGIPARFSGSGSGTDFTLTISSLQPEDFATYYCQQSYSTPLTFGGGTKVEIK
notes: also called m302 mAb; IgG m302; source: Expi293, transient, purified (protein G)

Biological target: T1, ZIKV envelope protein domain III-hFc fusion protein (ZIKV-DIII-hFc) (Zika virus strain MR766, UniProt Q32ZE1)
T1 construct: source: 293 FreeStyle, transient, purified from conditioned culture medium
Assay: BLI; Octet-Red96, 37 °C; […] (30 μg/mL, sodium acetate pH 5.0) […]; association 300 s, dissociation 1500 s; 1:1 Langmuir model; […]
Conditions: both partners purified

Row | Binder | Kd [nM] | koff [s⁻¹]
1 | B1 | 0.2 | 4e-05
2 | B2 | 47 | 0.002
